The target in assay [1] is HLA A2.1 molecule (human). Kind of assay: T2 cells, flow cytometry (BB7.2); reference I9V. In general terms: In flow cytometry, cells or beads pass a laser one at a time.
The target of assay [2] is HLA A2.1 molecule (human). The experiment in a line: T2 cells, flow cytometry (BB7.2); complex dissociation.

Molecule LLDTGADDTV (modifications not checked) [pol79] had an RA (relative affinity) in assay [1] of 10. The molecule further showed a DC50 in assay [2] of less than 2 h.

With KLTPLCVSL (modifications not checked) [K9L], the RA (relative affinity) in assay [1] worked out at 1.35. In assay [2], this molecule displayed a DC50 of more than 6 h.
